Patent US20050222029A1 (MYRIAD GENETICS, published 2005)

T1: Tumor Suppressor (TSG101) 231-391 (human, UniProt Q99816 231-390)
T1 construct: bait (Gal4 DBD fusion)
T1 sequence (looked up): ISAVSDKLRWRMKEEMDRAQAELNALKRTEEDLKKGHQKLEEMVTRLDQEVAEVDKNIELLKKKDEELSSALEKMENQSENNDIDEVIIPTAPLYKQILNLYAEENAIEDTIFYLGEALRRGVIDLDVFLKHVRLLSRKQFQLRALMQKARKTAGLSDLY

T2: Tumor Suppressor (TSG101) 12-326 (human, UniProt Q99816 12-326)
T2 construct: bait (Gal4 DBD fusion)
T2 sequence (looked up): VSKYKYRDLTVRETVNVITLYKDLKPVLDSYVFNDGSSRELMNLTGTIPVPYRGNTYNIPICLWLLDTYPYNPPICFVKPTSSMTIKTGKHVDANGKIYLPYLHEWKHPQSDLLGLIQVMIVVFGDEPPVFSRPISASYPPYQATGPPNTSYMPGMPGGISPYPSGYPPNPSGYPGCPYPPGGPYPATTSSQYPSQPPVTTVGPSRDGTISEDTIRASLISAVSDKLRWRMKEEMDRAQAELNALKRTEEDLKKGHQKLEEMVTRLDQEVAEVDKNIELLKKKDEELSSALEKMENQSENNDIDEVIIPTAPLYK

T3: Tumor Suppressor (TSG101) 50-391 (human, UniProt Q99816 50-390)
T3 construct: range 50-391; bait (Gal4 DBD fusion)
T3 sequence (looked up): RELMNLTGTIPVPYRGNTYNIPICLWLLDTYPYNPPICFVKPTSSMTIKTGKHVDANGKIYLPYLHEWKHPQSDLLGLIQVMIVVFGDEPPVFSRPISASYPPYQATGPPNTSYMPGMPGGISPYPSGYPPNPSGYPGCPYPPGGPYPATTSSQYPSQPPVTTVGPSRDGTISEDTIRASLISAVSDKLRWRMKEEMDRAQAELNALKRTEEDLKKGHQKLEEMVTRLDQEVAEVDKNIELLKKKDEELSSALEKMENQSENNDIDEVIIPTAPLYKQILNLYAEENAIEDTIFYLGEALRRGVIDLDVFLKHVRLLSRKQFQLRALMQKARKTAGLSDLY

T4: Tumor Suppressor (TSG101) 140-270 (human, UniProt Q99816 140-270)
T4 construct: range 140-270; bait (Gal4 DBD fusion)
T4 sequence (looked up): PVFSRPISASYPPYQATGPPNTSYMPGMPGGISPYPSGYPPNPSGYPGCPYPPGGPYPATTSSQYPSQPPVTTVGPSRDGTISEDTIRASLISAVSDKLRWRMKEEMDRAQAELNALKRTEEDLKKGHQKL

T5: Tumor Suppressor (TSG101) 240-391 (human, UniProt Q99816 240-390)
T5 construct: range 240-391; bait (Gal4 DBD fusion); also called TSG101 240-390
T5 sequence (looked up): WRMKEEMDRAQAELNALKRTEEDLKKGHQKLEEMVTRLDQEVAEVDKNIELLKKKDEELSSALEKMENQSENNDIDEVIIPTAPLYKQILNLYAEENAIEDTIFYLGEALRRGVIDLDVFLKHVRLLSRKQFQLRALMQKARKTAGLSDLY

B1: Tropomyosin TM30pl (TPM4) 79-142 (other, human, UniProt P67936 79-142, looked up)
chain: EAEKAADESERGMKVIENRAMKDEEKMEIQEMQLKEAKHIAEEADRKYEEVARKLVILEGELER
notes: prey (Gal4 AD-HA fusion)
B2: Tropomyosin TM30pl (TPM4) 91-142 (other, human, UniProt P67936 91-142, looked up)
chain: MKVIENRAMKDEEKMEIQEMQLKEAKHIAEEADRKYEEVARKLVILEGELER
notes: prey (Gal4 AD-HA fusion)
B3: Zink finger protein 231 (ZNF231) 2308-2438 (other, human, UniProt Q9UPA5 2308-2438, looked up)
chain: EEPLPTTTPAAIKEAAGAPAPAPLAGQKPPADAAPGGGSGALSRPGFEKEEASQEERQRKQQEQLLQLERERVELEKLRQLRLQEELERERVELQRHREEEQLLVQRELQELQTIKHHVLQQQQEERQAQF
notes: prey (Gal4 AD-HA fusion)
B4: Chromosome-associated polypeptide HCAP (HCAP) 208-300 (other, human, UniProt Q9UQE7 208-300, looked up)
chain: EELAQYQKWDKMRRALEYTIYNQELNETRAKLDELSAKRETSGEKSRQLRDAQQDARDKMEDIERQVRELKTKISAMKEEKEQLSAERQEQIK
notes: prey (Gal4 AD-HA fusion)
B5: GrpE-Like protein cochaperone (PN19062) 40-89 (other)
chain: LEEDMGQSEQKADPPATEKTLLEEKVKLEEQLKETVEKYKRALADTENLR
notes: prey (Gal4 AD-HA fusion); also called PN19062/HMGE; GRPEL1
B6: Rho-associated (ROCK1) 462-617 (enzyme, human, UniProt Q13464 462-617, looked up)
chain: KIMKELDEEGNQRRNLESTVSQIEKEKMLLQHRINEYQRKAEQENEKRRNVENEVSTLKDQLEDLKKVSQNSQLANEKLSQLQKQLEEANDLLRTESDTAVRLRKSHTEMSKSISQLESLNRELQERNRILENSKSQTDKDYYQLQAILEAERRDR
notes: prey (Gal4 AD-HA fusion); also called ROK; p160
B7: Tumor Suppressor (TSG101) 147-391 (other, human, UniProt Q99816 147-390, looked up)
chain: SASYPPYQATGPPNTSYMPGMPGGISPYPSGYPPNPSGYPGCPYPPGGPYPATTSSQYPSQPPVTTVGPSRDGTISEDTIRASLISAVSDKLRWRMKEEMDRAQAELNALKRTEEDLKKGHQKLEEMVTRLDQEVAEVDKNIELLKKKDEELSSALEKMENQSENNDIDEVIIPTAPLYKQILNLYAEENAIEDTIFYLGEALRRGVIDLDVFLKHVRLLSRKQFQLRALMQKARKTAGLSDLY
notes: bait (Gal4 DBD fusion)
B8: Golgi autoantigen (Golgin-84) 198-497 (other, human, UniProt Q8TBA6 198-497, looked up)
chain: SKENVSSNAACPDHTPTPNDDGKSHELSNLRLENQLLRNEVQSLNQEMASLLQRSKETQEELNKARARVEKWNADHSKSDRMTRGLRAQVDDLTEAVAAKDSQLAVLKVRLQEADQLLSTRTEALEALQSEKSRIMQDQSEGNSLQNQALQTFQERLHEADATLKREQESYKQMQSEFAARLNKVEMERQNLAEAITLAERKYSDEKKRVDELQQQVKLYKLNLESSKQELIDYKQKATRILQSKEKLINSLKEGSGFEGLDSSTASSMELEELRHEKEMQREEIQKLMGQIHQLRSELQ
notes: prey (Gal4 AD-HA fusion)
B9: Golgi autoantigen (Golgin-84) 198-501 (other, human, UniProt Q8TBA6 198-501, looked up)
chain: SKENVSSNAACPDHTPTPNDDGKSHELSNLRLENQLLRNEVQSLNQEMASLLQRSKETQEELNKARARVEKWNADHSKSDRMTRGLRAQVDDLTEAVAAKDSQLAVLKVRLQEADQLLSTRTEALEALQSEKSRIMQDQSEGNSLQNQALQTFQERLHEADATLKREQESYKQMQSEFAARLNKVEMERQNLAEAITLAERKYSDEKKRVDELQQQVKLYKLNLESSKQELIDYKQKATRILQSKEKLINSLKEGSGFEGLDSSTASSMELEELRHEKEMQREEIQKLMGQIHQLRSELQDMEA
notes: prey (Gal4 AD-HA fusion)
B10: Kinesin Family Member 5A (KIF5A) 564-725 (other, human, UniProt Q12840 564-725, looked up)
chain: IVGNGEIKLPVEISGAIEEEFTVARLYISKIKSEVKSVVKRCRQLENLQVECHRKMEVTGRELSSCQLLISQHEAKIRSLTEYMQSVELKKRHLEESYDSLSDELAKLQAQETVHEVALKDKEPDTQDADEVKKALELQMESHREAHHRQLARLRDEINEKQ
notes: prey (Gal4 AD-HA fusion)
B11: Accessory proteins BAP31/BAP29 (BAP31) 184-246 (other, human, UniProt P51572 184-246, looked up)
chain: LKADLQKLKDELASTKQKLEKAENQVLAMRKQSEGLTKEYDRLLEEHAKLQAAVDGPMDKKEE
notes: prey (Gal4 AD-HA fusion)
B12: novel protein PN9667 268-422 (other)
chain: KAKEKEVEKIEQNGLALIQNKKEDVSSIVMSTLRELGQTWANLDHMVGQLKILLKSVLDQWSSHKVAFDKINSYLMEARYSLSRFRLLTGSLEAVQVQVDNLQNLQDDLEKQERSLQKFGSITNQLLKECHPPVTETLTNTLKEVNMRWNNLLEE
notes: prey (Gal4 AD-HA fusion)
B13: Hypothetical protein FLJ10540 1-231 (other, human, UniProt Q53EZ4 1-231, looked up)
chain: MSSRSTKDLIKSKWGSKPSNSKSETTLEKLKGEIAHLKTSVDEITSGKGKLTDKERHRLLEKIRVLEAEKEKNAYQLTEKDKEIQRLRDQLKARYSTTTLLEQLEETTREGERREQVLKALSEEKDVLKQQLSAATSRIAELESKTNTLRLSQTVAPNCFNSSINNIHEMEIQLKDALEKNQQWLVYDQQREVYVKGLLAKIFELEKKTETAAHSLPQQTKKPESEGYLQE
notes: prey (Gal4 AD-HA fusion)
B14: Hypothetical protein FLJ10540 1-110 (other, human, UniProt Q53EZ4 1-110, looked up)
chain: MSSRSTKDLIKSKWGSKPSNSKSETTLEKLKGEIAHLKTSVDEITSGKGKLTDKERHRLLEKIRVLEAEKEKNAYQLTEKDKEIQRLRDQLKARYSTTTLLEQLEETTRE
notes: range 1-110; prey (Gal4 AD-HA fusion)
B15: Hypothetical protein FLJ10540 1-117 (other, human, UniProt Q53EZ4 1-117, looked up)
chain: MSSRSTKDLIKSKWGSKPSNSKSETTLEKLKGEIAHLKTSVDEITSGKGKLTDKERHRLLEKIRVLEAEKEKNAYQLTEKDKEIQRLRDQLKARYSTTTLLEQLEETTREGERREQV
notes: prey (Gal4 AD-HA fusion)
B16: Hypothetical protein FLJ10540 115-231 (other, human, UniProt Q53EZ4 115-231, looked up)
chain: EQVLKALSEEKDVLKQQLSAATSRIAELESKTNTLRLSQTVAPNCFNSSINNIHEMEIQLKDALEKNQQWLVYDQQREVYVKGLLAKIFELEKKTETAAHSLPQQTKKPESEGYLQE
notes: prey (Gal4 AD-HA fusion)
B17: Hypothetical protein FLJ10540 1-120 (other, human, UniProt Q53EZ4 1-120, looked up)
chain: MSSRSTKDLIKSKWGSKPSNSKSETTLEKLKGEIAHLKTSVDEITSGKGKLTDKERHRLLEKIRVLEAEKEKNAYQLTEKDKEIQRLRDQLKARYSTTTLLEQLEETTREGERREQVLKA
notes: range 1-120; prey (Gal4 AD-HA fusion)
B18: Hypothetical protein FLJ10540 1-115 (other, human, UniProt Q53EZ4 1-115, looked up)
chain: MSSRSTKDLIKSKWGSKPSNSKSETTLEKLKGEIAHLKTSVDEITSGKGKLTDKERHRLLEKIRVLEAEKEKNAYQLTEKDKEIQRLRDQLKARYSTTTLLEQLEETTREGERRE
notes: prey (Gal4 AD-HA fusion)
B19: Hypothetical protein FLJ10540 1-74 (other, human, UniProt Q53EZ4 1-74, looked up)
chain: MSSRSTKDLIKSKWGSKPSNSKSETTLEKLKGEIAHLKTSVDEITSGKGKLTDKERHRLLEKIRVLEAEKEKNA
notes: range 1-74; prey (Gal4 AD-HA fusion)
B20: GTPase-activiating protein 1 1463-1568 (other, human, UniProt P46940 1463-1568, looked up)
chain: LKKLTELGTVDPKNKYQELINDIARDIRNQRRYRQRRKAELVKLQQTYAALNSKATFYGEQVDYYKSYIKTCLDNLASKGKVSKKPREMKGKKSKKISLKYTAARL
notes: prey (Gal4 AD-HA fusion); also called IQGAP1; IQGAP
B21: Mitotic spindle coiled-coil related protein 942-1021 (other, human, UniProt Q96R06 942-1021, looked up)
chain: LGSDKSAFTRVASMVSLQPAETPGMEESLAEMSIMTTELQSLCSLLQESKEEAIRTLQRKICELQARLQAQEEQHQEVQK
notes: prey (Gal4 AD-HA fusion)
B22: farnesyltransferase, CAAX box, alpha (FNTA) 189-328 (enzyme)
chain: not shown
notes: prey (Gal4 AD-HA fusion)

The binders below were run against T1, Tumor Suppressor (TSG101) 231-391 (assay: yeast two-hybrid).
B1: binds. B2: binds. B3: binds. B4: binds. B5: binds. B6: binds.

Each binder was assayed against B9 (assay: yeast two-hybrid).
B7: binds.

Each binder was assayed against T2, Tumor Suppressor (TSG101) 12-326 (assay: yeast two-hybrid).
B8: binds. B9: binds. B10: binds. B11: binds. B12: binds.

The binders below were run against T3, Tumor Suppressor (TSG101) 50-391 (assay: yeast two-hybrid).
B13: binds. B14: binds. B15: binds. B16: binds.

Each binder was assayed against T4, Tumor Suppressor (TSG101) 140-270 (assay: yeast two-hybrid).
B17: binds. B18: binds. B19: binds.

The binders below were run against T5, Tumor Suppressor (TSG101) 240-391 (assay: yeast two-hybrid).
B20: binds. B21: binds.

What follows are binders tested against T6, v-akt murine thymoma viral oncogene homolog 1 (AKT1) 1-150 (human, UniProt P31749 1-150) (assay: yeast two-hybrid).
T6 construct: range 1-150; bait (Gal4 DBD fusion)
T6 sequence (P31749 1-150 limits assumed): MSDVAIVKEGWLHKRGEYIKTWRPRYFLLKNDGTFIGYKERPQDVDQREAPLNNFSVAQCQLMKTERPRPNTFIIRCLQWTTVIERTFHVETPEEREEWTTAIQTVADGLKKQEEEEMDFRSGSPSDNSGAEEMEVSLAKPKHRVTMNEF
B22: binds.
